Data from the supplement of paper PMC5998384.

Columns and labels:
HeLa Kyoto [1] = test: solubility in G1/S (NP-40 vs SDS abundance) (log2 ratio); higher = more soluble; conditions: cell cycle stage: G1/S
HeLa Kyoto [2] = test: solubility change mitosis vs G1/S (difference of NP-40 vs SDS log2 ratios) (log2 ratio difference); higher = more soluble in mitosis
HeLa Kyoto [3] = test: melting temperature (median over replicates), in situ; higher = more thermally stable
HeLa Kyoto [4] = test: thermal stability score vs G1/S (z-score of summed log2 fold changes over temperatures); higher = more thermally stable than in G1/S
[5] = cell cycle stage: early G1 (4.5 h after nocodazole release)
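Wherever melting temperature (median over replicates), in situ is given: HeLa Kyoto cells synchronized by double thymidine or nocodazole block, proteins quantified by TMT10plex mass spectrometry, three independent biological replicates.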
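Wherever solubility change mitosis vs G1/S (difference of NP-40 vs SDS log2 ratios) is given: synchronized HeLa Kyoto cells (double thymidine block for G1/S, nocodazole release for mitosis), protein amounts in NP-40 versus SDS lysates quantified by mass spectrometry, three biological replicates.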
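Wherever solubility in G1/S (NP-40 vs SDS abundance) is given: HeLa Kyoto cells arrested at G1/S by double thymidine block, proteins quantified by TMT10plex mass spectrometry in mild NP-40 versus SDS extracts, three biological replicates.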
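Wherever thermal stability score vs G1/S (z-score of summed log2 fold changes over temperatures) is given: synchronized HeLa Kyoto cells, proteins quantified by TMT10plex mass spectrometry, three biological replicates, mitosis taken 0.5 h after nocodazole release, G1/S directly after double thymidine block.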

Sequence | solubility in G1/S (log2) (HeLa Kyoto [1]) | solubility change mitosis (log2) (HeLa Kyoto [2]) | melting temperature (HeLa Kyoto [3]; cell cycle stage: G1/S) [°C] | melting temperature (HeLa Kyoto [3]; cell cycle stage: mitosis) [°C] | thermal stability score (HeLa Kyoto [4]; [5]) | thermal stability score (HeLa Kyoto [4]; cell cycle stage: mitosis)
MRLGSGTFATCCVAIEVLGIAVFLRGFFPAPVRSSARAEHGAEPPAPEPSAGASSNWTTLPPPLFSKVVIVLIDALRDDFVFGSKGVKFMPYTTYLVEKGASHSFVAEAKPPTVTMPRIKALMTGSLPGFVDVIRNLNSPALLEDSVIRQAKAAGKRIVFYGDETWVKLFPKHFVEYDGTTSFFVSDYTEVDNNVTRHLDKVLKRGDWDILILHYLGLDHIGHISGPNSPLIGQKLSEMDSVLMKIHTSLQSKERETPLPNLLVLCGDHGMSETGSHGASSTEEVNTPLILISSAFERKPGDIRHPKHVQQTDVAATLAIALGLPIPKDSVGSLLFPVVEGRPMREQLRFLHLNTVQLSKLLQENVPSYEKDPGFEQFKMSERLHGNWIRLYLEEKHSEVLFNLGSKVLRQYLDALKTLSLSLSAQVAQYDIYSMMVGTVVVLEVLTLLLLSVPQALRRKAELEVPLSSPGFSLLFYLVILVLSAVHVIVCTSAESSCYFCGLSWLAAGGVMVLASALLCVIVSVLTNVLVGGNTPRKNPMHPSSRWSELDLLILLGTAGHVLSLGASSFVEEEHQTWYFLVNTLCLALSQETYRNYFLGDDGEPPCGLCVEQGHDGATAAWQDGPGCDVLERDKGHGSPSTSEVLRGREKWMVLASPWLILACCRLLRSLNQTGVQWAHRPDLGHWLTSSDHKAELSVLAALSLLVVFVLVQRGCSPVSKAALALGLLGVYCYRAAIGSVRFPWRPDSKDISKGIIEARFVYVFVLGILFTGTKDLLKSQVIAADFKLKTVGLWEIYSGLVLLAALLFRPHNLPVLAFSLLIQTLMTKFIWKPLRHDAAEITVMHYWFGQAFFYFQGNSNNIATVDISAGFVGLDTYVEIPAVLLTAFGTYAGPVLWASHLVHFLSSETRSGSALSHACFCYALICSIPVFTYIVLVTSLRYHLFIWSVFSPKLLYEGMHLLITAAVCVFFTAMDQTRLTQS [PIGG] | -0.239 | 0.00219 | 54.1 | 53.8 | 0.623 | -0.407
MRLLPLAPGRLRRGSPRHLPSCSPALLLLVLGGCLGVFGVAAGTRRPNVVLLLTDDQDEVLGGMTPLKKTKALIGEMGMTFSSAYVPSALCCPSRASILTGKYPHNHHVVNNTLEGNCSSKSWQKIQEPNTFPAILRSMCGYQTFFAGKYLNEYGAPDAGGLEHVPLGWSYWYALEKNSKYYNYTLSINGKARKHGENYSVDYLTDVLANVSLDFLDYKSNFEPFFMMIATPAPHSPWTAAPQYQKAFQNVFAPRNKNFNIHGTNKHWLIRQAKTPMTNSSIQFLDNAFRKRWQTLLSVDDLVEKLVKRLEFTGELNNTYIFYTSDNGYHTGQFSLPIDKRQLYEFDIKVPLLVRGPGIKPNQTSKMLVANIDLGPTILDIAGYDLNKTQMDGMSLLPILRGASNLTWRSDVLVEYQGEGRNVTDPTCPSLSPGVSQCFPDCVCEDAYNNTYACVRTMSALWNLQYCEFDDQEVFVEVYNLTADPDQITNIAKTIDPELLGKMNYRLMMLQSCSGPTCRTPGVFDPGYRFDPRLMFSNRGSVRTRRFSKHLL [GNS] | 0.471 | 0.0867 | 57.1 | 57.6 | -1.62 | -1.58
MRLPDLRPWTSLLLVDAALLWLLQGPLGTLLPQGLPGLWLEGTLRLGGLWGLLKLRGLLGFVGTLLLPLCLATPLTVSLRALVAGASRAPPARVASAPWSWLLVGYGAAGLSWSLWAVLSPPGAQEKEQDQVNNKVLMWRLLKLSRPDLPLLVAAFFFLVLAVLGETLIPHYSGRVIDILGGDFDPHAFASAIFFMCLFSFGSSLSAGCRGGCFTYTMSRINLRIREQLFSSLLRQDLGFFQETKTGELNSRLSSDTTLMSNWLPLNANVLLRSLVKVVGLYGFMLSISPRLTLLSLLHMPFTIAAEKVYNTRHQEVLREIQDAVARAGQVVREAVGGLQTVRSFGAEEHEVCRYKEALEQCRQLYWRRDLERALYLLVRRVLHLGVQMLMLSCGLQQMQDGELTQGSLLSFMIYQESVGSYVQTLVYIYGDMLSNVGAAEKVFSYMDRQPNLPSPGTLAPTTLQGVVKFQDVSFAYPNRPDRPVLKGLTFTLRPGEVTALVGPNGSGKSTVAALLQNLYQPTGGQVLLDEKPISQYEHCYLHSQVVSVGQEPVLFSGSVRNNIAYGLQSCEDDKVMAAAQAAHADDFIQEMEHGIYTDVGEKGSQLAAGQKQRLAIARALVRDPRVLILDEATSALDVQCEQALQDWNSRGDRTVLVIAHRLQTVQRAHQILVLQEGKLQKLAQL [TAP2] | -0.259 | -0.195 | 49.8 | 50.4 | 0.266 | 0.39
MRLPRRAALGLLPLLLLLPPAPEAAKKPTPCHRCRGLVDKFNQGMVDTAKKNFGGGNTAWEEKTLSKYESSEIRLLEILEGLCESSDFECNQMLEAQEEHLEAWWLQLKSEYPDLFEWFCVKTLKVCCSPGTYGPDCLACQGGSQRPCSGNGHCSGDGSRQGDGSCRCHMGYQGPLCTDCMDGYFSSLRNETHSICTACDESCKTCSGLTNRDCGECEVGWVLDEGACVDVDECAAEPPPCSAAQFCKNANGSYTCEECDSSCVGCTGEGPGNCKECISGYAREHGQCADVDECSLAEKTCVRKNENCYNTPGSYVCVCPDGFEETEDACVPPAEAEATEGESPTQLPSREDL [CRELD2] | 0.092 | -0.0918 | 57.2 | 59.6 | -5.44 | -1.73
MRMSVGLSLLLPLSGRTFLLLLSVVMAQSHWPSEPSEAVRDWENQLEASMHSVLSDLHEAVPTVVGIPDGTAVVGRSFRVTIPTDLIASSGDIIKVSAAGKEALPSWLHWDSQSHTLEGLPLDTDKGVHYISVSATRLGANGSHIPQTSSVFSIEVYPEDHSELQSVRTASPDPGEVVSSACAADEPVTVLTVILDADLTKMTPKQRIDLLHRMRSFSEVELHNMKLVPVVNNRLFDMSAFMAGPGNAKKVVENGALLSWKLGCSLNQNSVPDIHGVEAPAREGAMSAQLGYPVVGWHIANKKPPLPKRVRRQIHATPTPVTAIGPPTTAIQEPPSRIVPTPTSPAIAPPTETMAPPVRDPVPGKPTVTIRTRGAIIQTPTLGPIQPTRVSEAGTTVPGQIRPTMTIPGYVEPTAVATPPTTTTKKPRVSTPKPATPSTDSTTTTTRRPTKKPRTPRPVPRVTTKVSITRLETASPPTRIRTTTSGVPRGGEPNQRPELKNHIDRVDAWVGTYFEVKIPSDTFYDHEDTTTDKLKLTLKLREQQLVGEKSWVQFNSNSQLMYGLPDSSHVGKHEYFMHATDKGGLSAVDAFEIHVHRRPQGDRAPARFKAKFVGDPALVLNDIHKKIALVKKLAFAFGDRNCSTITLQNITRGSIVVEWTNNTLPLEPCPKEQIAGLSRRIAEDDGKPRPAFSNALEPDFKATSITVTGSGSCRHLQFIPVVPPRRVPSEAPPTEVPDRDPEKSSEDDVYLHTVIPAVVVAAILLIAGIIAMICYRKKRKGKLTLEDQATFIKKGVPIIFADELDDSKPPPSSSMPLILQEEKAPLPPPEYPNQSVPETTPLNQDTMGEYTPLRDEDPNAPPYQPPPPFTAPMEGKGSRPKNMTPYRSPPPYVPP [DAG1] | -0.103 | 0.19 | 54.1 | 54.9 | -2.43 | -3.27
MRPGTGAERGGLMVSEMESHPPSQGPGDGERRLSGSSLCSGSWVSADGFLRRRPSMGHPGMHYAPMGMHPMGQRANMPPVPHGMMPQMMPPMGGPPMGQMPGMMSSVMPGMMMSHMSQASMQPALPPGVNSMDVAAGTASGAKSMWTEHKSPDGRTYYYNTETKQSTWEKPDDLKTPAEQLLSKCPWKEYKSDSGKPYYYNSQTKESRWAKPKELEDLEGYQNTIVAGSLITKSNLHAMIKAEESSKQEECTTTSTAPVPTTEIPTTMSTMAAAEAAAAVVAAAAAAAAAAAAANANASTSASNTVSGTVPVVPEPEVTSIVATVVDNENTVTISTEEQAQLTSTPAIQDQSVEVSSNTGEETSKQETVADFTPKKEEEESQPAKKTYTWNTKEEAKQAFKELLKEKRVPSNASWEQAMKMIINDPRYSALAKLSEKKQAFNAYKVQTEKEEKEEARSKYKEAKESFQRFLENHEKMTSTTRYKKAEQMFGEMEVWNAISERDRLEIYEDVLFFLSKKEKEQAKQLRKRNWEALKNILDNMANVTYSTTWSEAQQYLMDNPTFAEDEELQNMDKEDALICFEEHIRALEKEEEEEKQKSLLRERRRQRKNRESFQIFLDELHEHGQLHSMSSWMELYPTISSDIRFTNMLGQPGSTALDLFKFYVEDLKARYHDEKKIIKDILKDKGFVVEVNTTFEDFVAIISSTKRSTTLDAGNIKLAFNSLLEKAEAREREREKEEARKMKRKESAFKSMLKQAAPPIELDAVWEDIRERFVKEPAFEDITLESERKRIFKDFMHVLEHECQHHHSKNKKHSKKSKKHHRKRSRSRSGSDSDDDDSHSKKKRQRSESRSASEHSSSAESERSYKKSKKHKKKSKKRRHKSDSPESDAEREKDKKEKDRESEKDRTRQRSESKHKSPKKKTGKDSGNWDTSGSELSEGELEKRRRTLLEQLDDDQ [PRPF40A] | -1.2 | 0.633 | 47.1 | 48.8 | 1.36 | 6.53
MRPLTEEETRVMFEKIAKYIGENLQLLVDRPDGTYCFRLHNDRVYYVSEKIMKLAANISGDKLVSLGTCFGKFTKTHKFRLHVTALDYLAPYAKYKVWIKPGAEQSFLYGNHVLKSGLGRITENTSQYQGVVVYSMADIPLGFGVAAKSTQDCRKVDPMAIVVFHQADIGEYVRHEETLT [NIP7] | -1.97 | 0.622 | 55.5 | 53.8 | -2 | -2.49
MRQKRKGDLSPAELMMLTIGDVIKQLIEAHEQGKDIDLNKVKTKTAAKYGLSAQPRLVDIIAAVPPQYRKVLMPKLKAKPIRTASGIAVVAVMCKPHRCPHISFTGNICVYCPGGPDSDFEYSTQSYTGYEPTSMRAIRARYDPFLQTRHRIEQLKQLGHSVDKVEFIVMGGTFMALPEEYRDYFIRNLHDALSGHTSNNIYEAVKYSERSLTKCIGITIETRPDYCMKRHLSDMLTYGCTRLEIGVQSVYEDVARDTNRGHTVKAVCESFHLAKDSGFKVVAHMMPDLPNVGLERDIEQFTEFFENPAFRPDGLKLYPTLVIRGTGLYELWKSGRYKSYSPSDLVELVARILALVPPWTRVYRVQRDIPMPLVSSGVEHGNLRELALARMKDLGIQCRDVRTREVGIQEIHHKVRPYQVELVRRDYVANGGWETFLSYEDPDQDILIGLLRLRKCSEETFRFELGGGVSIVRELHVYGSVVPVSSRDPTKFQHQGFGMLLMEEAERIAREEHGSGKIAVISGVGTRNYYRKIGYRLQGPYMVKMLK [ELP3] | -0.062 | -0.0597 | 51.9 | 51.4 | 0.13 | -1.12
MRRAALRLCALGKGQLTPGRGLTQGPQNPKKQGIFHIHEVRDKLREIVGASTNWRDHVKAMEERKLLHSFLAKSQDGLPPRRMKDSYIEVLLPLGSEPELREKYLTVQNTVRFGRILEDLDSLGVLICYMHNKIHSAKMSPLSIVTALVDKIDMCKKSLSPEQDIKFSGHVSWVGKTSMEVKMQMFQLHGDEFCPVLDATFVMVARDSENKGPAFVNPLIPESPEEEELFRQGELNKGRRIAFSSTSLLKMAPSAEERTTIHEMFLSTLDPKTISFRSRVLPSNAVWMENSKLKSLEICHPQERNIFNRIFGGFLMRKAYELAWATACSFGGSRPFVVAVDDIMFQKPVEVGSLLFLSSQVCFTQNNYIQVRVHSEVASLQEKQHTTTNVFHFTFMSEKEVPLVFPKTYGESMLYLDGQRHFNSMSGPATLRKDYLVEP [ACOT9] | -0.111 | -0.0152 | 52.9 | 53.7 | -1.25 | 1.48
